Usually Kd stands for the constant that tells how readily two partners part at equilibrium. Low values mean higher affinity, high ones lower affinity. A word on the koff: it is the first-order rate constant of dissociation. Low values mean a long-lived complex, high ones a short-lived complex. One may read the kon as the second-order rate constant of association. Higher therefore signals fast association.

This assay addresses Mouse TREM-1 analyte (in house, his tagged) (mouse) (UniProt Q9JKE2). Kind of assay: SPR (Biacore T200, 25 C), MAB1187 captured on anti rat Fc, his tagged mouse TREM-1 as analyte, 1:1 model. Background: In SPR one partner is held on a chip, and binding of the other changes the refractive index at the surface.
Chain of UniProt Q9JKE2 (Q9JKE2 21-202 limits assumed): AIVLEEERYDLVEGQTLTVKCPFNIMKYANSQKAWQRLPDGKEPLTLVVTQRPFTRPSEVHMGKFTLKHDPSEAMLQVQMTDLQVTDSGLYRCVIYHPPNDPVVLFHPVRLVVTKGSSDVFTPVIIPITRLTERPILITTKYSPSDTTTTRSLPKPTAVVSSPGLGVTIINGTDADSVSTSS

Regarding “MAB1187, anti-mouse TREM1 monoclonal antibody (R&D Systems, clone 174031)”, the Kd turned out to be 26 nM, the koff came to 0.0051 s⁻¹ and the kon is 200000 M⁻¹ s⁻¹.
